# Measured values reported in US20230310629A1 (Merck KGaA, published 2023).
# Molecular target: T1, MUC1 on WISH cells (human, UniProt P15941 24-1255)
# T1 construct: whole, on cells; WISH cells also carry low levels of EGFR; also called MUC1-expressing cells (WISH)
# Experiment: cell binding on WISH cells
binder,measurement,value
"1993-H02 with an HT186-D11 light chain (anti-MUC1 antibody H02) (antibody, V domains shown, One molecule is used here for both experiments) VH: QMQLVQSEAELKKPGASVKVSCKASGYSFTSHFMHWVRQAPGQGLEWMGWIDPVTGGTKYAQNFQGWVTMTRDTSIRTAYLELSRLRSDDTAMYYCAREARADRGQFDKWGQGTLVTVAS VL: QSVLTQPPSVSVAPGKTARITCGGNNIGSKSVHWYQQKPGQAPALVIYYGSNRPSGIPERFSGSNSGNTATLTISRVEAGDEADYYCQVWDSSSDWVFGGGTKLTVL",Kd,23.9 nM
